Test results published in PMC7291361 (ACS infectious diseases, 2020).

Target: H1 SI-06 HA FLsE (Influenza A virus A/Solomon …, UniProt A7UPX0, strain)
Experiment: ELISA

B1: K03.12 IgG (antibody, V domains shown)
VH: QVQLVQSGAEVKKPGASVKVSCKTSGYTFTAYYLHWVRQAPGQGFEWMAWINPNTGDTNYAQKFQGRVTLSRDTSITTAYMELTRLRSDDTAVYYCAKDLTLMYVFDSGWARGAHDYYGMDVWGQGTTVAVSG
VL: PSALTQPASVSGSPGQSVTISCTGTNSDVGTFDLVSWYQQYPGKAPKLIIYEGSRRPSGVSDRFSGSKSGNTASLTISGLQAEDEADYYCSSYAGSVVFGGGTKLTVL
binding result: binds
